Source: patent US20210221867A1 (Novo Nordisk, published 2021)
Positions of bridges follow the written chain, without caps; N, C: chain ends. Non-standard residues stand in square brackets, D forms with d. dPhe(4-Cl) = N[C@H](Cc1ccc(Cl)cc1)C(=O)O; dPhe(4-Me) = Cc1ccc(C[C@@H](N)C(=O)O)cc1; dPhe(4-F) = N[C@H](Cc1ccc(F)cc1)C(=O)O; Nle = CCCC[C@H](N)C(=O)O; Thz = O=C(O)[C@@H]1CSCN1; Aib = CC(C)(N)C(=O)O

Assays:
human MC4 receptor [1] = target: T1, human MC4 receptor (human, UniProt P32245 1-332); assay: cell-based or functional assay
human MC4 receptor [2] = target: T1, human MC4 receptor; assay: SPA competition binding, displacement of 125I-NDP-α-MSH, BHK membranes with human MC4R
Protocol: (§1) The SPA Binding assay was performed in 96-well white opaque plates. Each well contained: 0.5 mg PVT-WGA SPA beads, MC4 receptor expressing membrane diluted to give approximately 10% specific tracer binding, 50.000 dpm ¹²⁵I-NDP-α-MSH and relevant dilutions of test compound. The final volume in each well was 200 μl. […] Plates were incubated overnight (22-24 hours) at room temperature before counting for 2 minutes per well, using a TopCount NXT scintillation counter. Displacement of radio ligand is measured as reduction in light emission from SPA beads, and IC₅₀ values are calculated by nonlinear regression analysis of sigmoidal dose-response curves in GraphPad Prism (GraphPad Software, La Jolla, Calif., USA).

human MC1 receptor [3] = target: T2, human MC1 receptor (human, UniProt Q01726 1-317); assay: SPA competition binding, displacement of 125I-NDP-α-MSH, BHK membranes with human MC1R
T2 construct: whole, on cells; cAMP assay used whole BHK cells; also called melanocortin 1 receptor
Protocol: as §1, with “MC1” for “MC4”

human MC1 receptor [4] = target: T2, human MC1 receptor; assay: cell-based or functional assay

T2 sequence (Q01726 whole entry): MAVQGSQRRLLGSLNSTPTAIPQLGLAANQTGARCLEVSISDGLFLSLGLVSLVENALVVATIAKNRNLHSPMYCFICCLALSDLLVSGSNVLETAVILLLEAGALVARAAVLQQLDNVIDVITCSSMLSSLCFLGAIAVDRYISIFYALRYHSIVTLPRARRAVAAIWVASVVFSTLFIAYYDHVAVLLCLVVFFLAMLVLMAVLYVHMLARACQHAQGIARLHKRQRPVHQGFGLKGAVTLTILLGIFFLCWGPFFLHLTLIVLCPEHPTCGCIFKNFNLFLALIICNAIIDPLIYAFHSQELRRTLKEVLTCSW
T1 sequence (P32245 whole entry): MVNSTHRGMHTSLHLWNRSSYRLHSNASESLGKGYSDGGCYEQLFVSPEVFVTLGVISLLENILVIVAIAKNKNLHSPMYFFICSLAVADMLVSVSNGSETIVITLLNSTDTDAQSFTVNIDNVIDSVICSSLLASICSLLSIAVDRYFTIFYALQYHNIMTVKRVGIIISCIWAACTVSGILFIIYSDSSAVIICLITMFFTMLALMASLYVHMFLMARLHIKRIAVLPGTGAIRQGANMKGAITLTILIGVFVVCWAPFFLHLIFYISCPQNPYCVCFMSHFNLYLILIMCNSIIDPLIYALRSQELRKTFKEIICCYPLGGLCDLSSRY

MC4R cAMP EC50 (human MC4 receptor [1]) [nM] | IC50 (human MC4 receptor [2]) [nM] | IC50 (human MC1 receptor [3]) [nM] | MC1R cAMP EC50 (human MC1 receptor [4]) [nM] | Binder
1.51 | 1.47 | 374 | – | Ac-RCPH[dF]HWCPP[dR]E[Nle]-NH2 (disulfide 2-8; SMILES CCCC[C@H](NC(=O)[C@H](CCC(=O)O)NC(=O)[C@@H](CCCNC(=N)N)NC(=O)[C@@H]1CCCN1C(=O)[C@@H]1CCCN1C(=O)[C@@H]1CSSC[C@H](NC(=O)[C@H](CCCNC(=N)N)NC(C)=O)C(=O)N2CCC[C@H]2C(=O)N[C@@H](Cc2c[nH]cn2)C(=O)N[C@H](Cc2ccccc2)C(=O)N[C@@H](Cc2c[nH]cn2)C(=O)N[C@@H](Cc2c[nH]c3ccccc23)C(=O)N1)C(N)=O, Synthetic cyclic peptide; also called Chem. 1) [Ac-Arg-c[Cys-Pro-His-D-Phe-His-Trp-Cys]-Pro-Pro-D-Arg-Glu-Nle-NH2]
1.4 | 1.03 | 511 | 778 | Ac-CPH[dF]HWCPP[dR]E[Nle]RR-NH2 (disulfide 1-7; SMILES CCCC[C@H](NC(=O)[C@H](CCC(=O)O)NC(=O)[C@@H](CCCNC(=N)N)NC(=O)[C@@H]1CCCN1C(=O)[C@@H]1CCCN1C(=O)[C@@H]1CSSC[C@H](NC(C)=O)C(=O)N2CCC[C@H]2C(=O)N[C@@H](Cc2c[nH]cn2)C(=O)N[C@H](Cc2ccccc2)C(=O)N[C@@H](Cc2c[nH]cn2)C(=O)N[C@@H](Cc2c[nH]c3ccccc23)C(=O)N1)C(=O)N[C@@H](CCCNC(=N)N)C(=O)N[C@@H](CCCNC(=N)N)C(N)=O, Synthetic cyclic peptide; also called Chem. 3) [Ac-c[Cys-Pro-His-D-Phe-His-Trp-Cys]-Pro-Pro-D-Arg-Glu-Nle-Arg-Arg-NH2]
0.53 | 0.58 | 394 | 1070 | Ac-CPH[dF]HWCPP[dR]E[Nle][dR][dR]-NH2 (disulfide 1-7; SMILES CCCC[C@H](NC(=O)[C@H](CCC(=O)O)NC(=O)[C@@H](CCCNC(=N)N)NC(=O)[C@@H]1CCCN1C(=O)[C@@H]1CCCN1C(=O)[C@@H]1CSSC[C@H](NC(C)=O)C(=O)N2CCC[C@H]2C(=O)N[C@@H](Cc2c[nH]cn2)C(=O)N[C@H](Cc2ccccc2)C(=O)N[C@@H](Cc2c[nH]cn2)C(=O)N[C@@H](Cc2c[nH]c3ccccc23)C(=O)N1)C(=O)N[C@H](CCCNC(=N)N)C(=O)N[C@H](CCCNC(=N)N)C(N)=O, Synthetic cyclic peptide; also called Chem. 4) [Ac-c[Cys-Pro-His-D-Phe-His-Trp-Cys]-Pro-Pro-D-Arg-Glu-Nle-D-Arg-D-Arg-NH2]
2.15 | 0.88 | 290 | 601 | Ac-CPH[dPhe(4-Me)]HWCPP[dR]E[Nle][dR][dR]-NH2 (disulfide 1-7; SMILES CCCC[C@H](NC(=O)[C@H](CCC(=O)O)NC(=O)[C@@H](CCCNC(=N)N)NC(=O)[C@@H]1CCCN1C(=O)[C@@H]1CCCN1C(=O)[C@@H]1CSSC[C@H](NC(C)=O)C(=O)N2CCC[C@H]2C(=O)N[C@@H](Cc2c[nH]cn2)C(=O)N[C@H](Cc2ccc(C)cc2)C(=O)N[C@@H](Cc2c[nH]cn2)C(=O)N[C@@H](Cc2c[nH]c3ccccc23)C(=O)N1)C(=O)N[C@H](CCCNC(=N)N)C(=O)N[C@H](CCCNC(=N)N)C(N)=O, Synthetic cyclic peptide; also called Chem. 9) [Ac-c[Cys-Pro-His-D-MePhe-His-Trp-Cys]-Pro-Pro-D-Arg-Glu-Nle-D-Arg-D-Arg-NH2]
0.43 | 0.28 | 172 | – | Ac-CPH[dPhe(4-Cl)]HWCPP[dR]E[Nle][dR][dR]-NH2 (disulfide 1-7; SMILES CCCC[C@H](NC(=O)[C@H](CCC(=O)O)NC(=O)[C@@H](CCCNC(=N)N)NC(=O)[C@@H]1CCCN1C(=O)[C@@H]1CCCN1C(=O)[C@@H]1CSSC[C@H](NC(C)=O)C(=O)N2CCC[C@H]2C(=O)N[C@@H](Cc2c[nH]cn2)C(=O)N[C@H](Cc2ccc(Cl)cc2)C(=O)N[C@@H](Cc2c[nH]cn2)C(=O)N[C@@H](Cc2c[nH]c3ccccc23)C(=O)N1)C(=O)N[C@H](CCCNC(=N)N)C(=O)N[C@H](CCCNC(=N)N)C(N)=O, Synthetic cyclic peptide; also called Chem. 10) [Ac-c[Cys-Pro-His-D-Cl-Phe-His-Trp-Cys]-Pro-Pro-D-Arg-Glu-Nle-D-Arg-D-Arg-NH2]
0.25 | 0.46 | 262 | 888 | Ac-C[Thz]H[dPhe(4-F)]HWCPP[dR]E[Nle]RR-NH2 (disulfide 1-7; SMILES CCCC[C@H](NC(=O)[C@H](CCC(=O)O)NC(=O)[C@@H](CCCNC(=N)N)NC(=O)[C@@H]1CCCN1C(=O)[C@@H]1CCCN1C(=O)[C@@H]1CSSC[C@H](NC(C)=O)C(=O)N2CSC[C@H]2C(=O)N[C@@H](Cc2c[nH]cn2)C(=O)N[C@H](Cc2ccc(F)cc2)C(=O)N[C@@H](Cc2c[nH]cn2)C(=O)N[C@@H](Cc2c[nH]c3ccccc23)C(=O)N1)C(=O)N[C@@H](CCCNC(=N)N)C(=O)N[C@@H](CCCNC(=N)N)C(N)=O, Synthetic cyclic peptide; also called Chem. 17) [Ac-c[Cys-THAZ-His-D-F-Phe-His-Trp-Cys]-Pro-Pro-D-Arg-Glu-Nle-Arg-Arg-NH2]
1.17 | 0.71 | 144 | 288 | Ac-RCPH[dF]HWCPP[dR]E[Nle]K-NH2 (disulfide 2-8; SMILES CCCC[C@H](NC(=O)[C@H](CCC(=O)O)NC(=O)[C@@H](CCCNC(=N)N)NC(=O)[C@@H]1CCCN1C(=O)[C@@H]1CCCN1C(=O)[C@@H]1CSSC[C@H](NC(=O)[C@H](CCCNC(=N)N)NC(C)=O)C(=O)N2CCC[C@H]2C(=O)N[C@@H](Cc2c[nH]cn2)C(=O)N[C@H](Cc2ccccc2)C(=O)N[C@@H](Cc2c[nH]cn2)C(=O)N[C@@H](Cc2c[nH]c3ccccc23)C(=O)N1)C(=O)N[C@@H](CCCCN)C(N)=O, Synthetic cyclic peptide; also called Chem. 2) [Ac-Arg-c[Cys-Pro-His-D-Phe-His-Trp-Cys]-Pro-Pro-D-Arg-Glu-Nle-Lys-NH2]
0.6 | 0.68 | 128 | 270 | Ac-RCPH[dF]HWCPP[dR]E[Nle]R-NH2 (disulfide 2-8; SMILES CCCC[C@H](NC(=O)[C@H](CCC(=O)O)NC(=O)[C@@H](CCCNC(=N)N)NC(=O)[C@@H]1CCCN1C(=O)[C@@H]1CCCN1C(=O)[C@@H]1CSSC[C@H](NC(=O)[C@H](CCCNC(=N)N)NC(C)=O)C(=O)N2CCC[C@H]2C(=O)N[C@@H](Cc2c[nH]cn2)C(=O)N[C@H](Cc2ccccc2)C(=O)N[C@@H](Cc2c[nH]cn2)C(=O)N[C@@H](Cc2c[nH]c3ccccc23)C(=O)N1)C(=O)N[C@@H](CCCNC(=N)N)C(N)=O, Synthetic cyclic peptide; also called Chem. 8) [Ac-Arg-c[Cys-Pro-His-D-Phe-His-Trp-Cys]-Pro-Pro-D-Arg-Glu-Nle-Arg-NH2]
2.72 | 6.31 | 816 | 649 | Ac-[dR]CPH[dF]HWCPP[dR]E[Nle]-NH2 (disulfide 2-8; SMILES CCCC[C@H](NC(=O)[C@H](CCC(=O)O)NC(=O)[C@@H](CCCNC(=N)N)NC(=O)[C@@H]1CCCN1C(=O)[C@@H]1CCCN1C(=O)[C@@H]1CSSC[C@H](NC(=O)[C@@H](CCCNC(=N)N)NC(C)=O)C(=O)N2CCC[C@H]2C(=O)N[C@@H](Cc2c[nH]cn2)C(=O)N[C@H](Cc2ccccc2)C(=O)N[C@@H](Cc2c[nH]cn2)C(=O)N[C@@H](Cc2c[nH]c3ccccc23)C(=O)N1)C(N)=O, Synthetic cyclic peptide; also called Chem. 7) [Ac-D-Arg-c[Cys-Pro-His-D-Phe-His-Trp-Cys]-Pro-Pro-D-Arg-Glu-Nle-NH2]
0.33 | 0.44 | 214 | 456 | Ac-C[Aib]H[dF]HWCPP[dR]E[Nle][dR][dR]-NH2 (disulfide 1-7; SMILES CCCC[C@H](NC(=O)[C@H](CCC(=O)O)NC(=O)[C@@H](CCCNC(=N)N)NC(=O)[C@@H]1CCCN1C(=O)[C@@H]1CCCN1C(=O)[C@@H]1CSSC[C@H](NC(C)=O)C(=O)NC(C)(C)C(=O)N[C@@H](Cc2c[nH]cn2)C(=O)N[C@H](Cc2ccccc2)C(=O)N[C@@H](Cc2c[nH]cn2)C(=O)N[C@@H](Cc2c[nH]c3ccccc23)C(=O)N1)C(=O)N[C@H](CCCNC(=N)N)C(=O)N[C@H](CCCNC(=N)N)C(N)=O, Synthetic cyclic peptide; also called Chem. 13) [Ac-c[Cys-Aib-His-D-Phe-His-Trp-Cys]-Pro-Pro-D-Arg-Glu-Nle-D-Arg-D-Arg-NH2]
0.24 | 0.45 | 235 | 801 | Ac-C[Thz]H[dF]HWCPP[dR]E[Nle][dR][dR]-NH2 (disulfide 1-7; SMILES CCCC[C@H](NC(=O)[C@H](CCC(=O)O)NC(=O)[C@@H](CCCNC(=N)N)NC(=O)[C@@H]1CCCN1C(=O)[C@@H]1CCCN1C(=O)[C@@H]1CSSC[C@H](NC(C)=O)C(=O)N2CSC[C@H]2C(=O)N[C@@H](Cc2c[nH]cn2)C(=O)N[C@H](Cc2ccccc2)C(=O)N[C@@H](Cc2c[nH]cn2)C(=O)N[C@@H](Cc2c[nH]c3ccccc23)C(=O)N1)C(=O)N[C@H](CCCNC(=N)N)C(=O)N[C@H](CCCNC(=N)N)C(N)=O, Synthetic cyclic peptide; also called Chem. 12) [Ac-c[Cys-THAZ-His-D-Phe-His-Trp-Cys]-Pro-Pro-D-Arg-Glu-Nle-D-Arg-D-Arg-NH2]
1.39 | 0.86 | 443 | 1160 | Ac-CPH[dF]HWCPP[dR]E[Nle][dR]R-NH2 (disulfide 1-7; SMILES CCCC[C@H](NC(=O)[C@H](CCC(=O)O)NC(=O)[C@@H](CCCNC(=N)N)NC(=O)[C@@H]1CCCN1C(=O)[C@@H]1CCCN1C(=O)[C@@H]1CSSC[C@H](NC(C)=O)C(=O)N2CCC[C@H]2C(=O)N[C@@H](Cc2c[nH]cn2)C(=O)N[C@H](Cc2ccccc2)C(=O)N[C@@H](Cc2c[nH]cn2)C(=O)N[C@@H](Cc2c[nH]c3ccccc23)C(=O)N1)C(=O)N[C@H](CCCNC(=N)N)C(=O)N[C@@H](CCCNC(=N)N)C(N)=O, Synthetic cyclic peptide; also called Chem. 14) [Ac-c[Cys-Pro-His-D-Phe-His-Trp-Cys]-Pro-Pro-D-Arg-Glu-Nle-D-Arg-Arg-NH2]
